Values of other authors in patent US20230279355A1, “METHOD FOR THE IN VITRO OR EX VIVO AMPLIFICATION OF STEM CELLS OF BROWN OR BEIGE ADIPOCYTES” (CENTRE NATIONAL DE LA RECHERCHE SCIENTIFIQUE, priority 2020, published 2023).

Tested on: UCP1
Conditions: described in the literature

B1: Epidermal Growth Factor (protein, UniProt P01133 23-1207, looked up)
Pro-epidermal growth factor: PQHWSCPEGTLAGNGNSTCVGPAPFLIFSHGNSIFRIDTEGTNYEQLVVDAGVSVIMDFHYNEKRIYWVDLERQLLQRVFLNGSRQERVCNIEKNVSGMAINWINEEVIWSNQQEGIITVTDMKGNNSHILLSALKYPANVAVDPVERFIFWSSEVAGSLYRADLDGVGVKALLETSEKITAVSLDVLDKRLFWIQYNREGSNSLICSCDYDGGSVHISKHPTQHNLFAMSLFGDRIFYSTWKMKTIWIANKHTGKDMVRINLHSSFVPLGELKVVHPLAQPKAEDDTWEPEQKLCKLRKGNCSSTVCGQDLQSHLCMCAEGYALSRDRKYCEDVNECAFWNHGCTLGCKNTPGSYYCTCPVGFVLLPDGKRCHQLVSCPRNVSECSHDCVLTSEGPLCFCPEGSVLERDGKTCSGCSSPDNGGCSQLCVPLSPVSWECDCFPGYDLQLDEKSCAASGPQPFLLFANSQDIRHMHFDGTDYGTLLSQQMGMVYALDHDPVENKIYFAHTALKWIERANMDGSQRERLIEEGVDVPEGLAVDWIGRRFYWTDRGKSLIGRSDLNGKRSKIITKENISQPRGIAVHPMAKRLFWTDTGINPRIESSSLQGLGRLVIASSDLIWPSGITIDFLTDKLYWCDAKQSVIEMANLDGSKRRRLTQNDVGHPFAVAVFEDYVWFSDWAMPSVMRVNKRTGKDRVRLQGSMLKPSSLVVVHPLAKPGADPCLYQNGGCEHICKKRLGTAWCSCREGFMKASDGKTCLALDGHQLLAGGEVDLKNQVTPLDILSKTRVSEDNITESQHMLVAEIMVSDQDDCAPVGCSMYARCISEGEDATCQCLKGFAGDGKLCSDIDECEMGVPVCPPASSKCINTEGGYVCRCSEGYQGDGIHCLDIDECQLGEHSCGENASCTNTEGGYTCMCAGRLSEPGLICPDSTPPPHLREDDHHYSVRNSDSECPLSHDGYCLHDGVCMYIEALDKYACNCVVGYIGERCQYRDLKWWELRHAGHGQQQKVIVVAVCVVVLVMLLLLSLWGAHYYRTQKLLSKNPKNPYEESSRDVRSRRPADTEDGMSSCPQPWFVVIKEHQDLKNGGQPVAGEDGQAADGSMQPTSWRQEPQLCGMGTEQGCWIPVSSDKGSCPQVMERSFHMPSYGTQTLEGGVEKPHSLLSANPLWQQRALDPPHQMELTQ
modifications: Pro-epidermal growth factor
For B1, the “expression of UCP1” value is listed as “able to inhibit the expression of UCP1”.
